Experimental data as given in the RNAGym collection of RNA variant scans (doi:10.1073/pnas.2313332121).
Variants at the floor of the assay were thinned out.

B1: TPR 5TU (parent)
chain: GGAUCUUCUCGAUCUAACAAAAAAGACAAAUCUGCCACAAAGCUUGAGAGCAUCUUCGGAUGCAGAGGCGGCAGCCUUCGGUGGCGCGAUAGCGCCAACGUUCUCAACUAUGACACGCAAAACGCGUGCUCCGUUGAAUGGAGUUUAUCAUG

Variants of: B1
Test: polymerase ribozyme fitness, log enrichment relative to wild type (log ratio); higher = more active; in vitro selection for triplet polymerase activity
Summary of the method: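 Mutant libraries for each subunit of a heterodimeric triplet polymerase ribozyme were made by PCR and then transcribed. Each library underwent one round of in vitro selection in triplicate: annealing with a biotinylated primer, the partner subunit and triplets, frozen incubation at −7 °C, gel excision of extended constructs, streptavidin-bead capture and RT-PCR. Input and output libraries were Illumina-sequenced, and only genotypes with ≥10 input reads and ≥1 read per output were kept. Fitness is the logarithm, base 2, of genotype enrichment over wild-type enrichment, computed from inverse-variance-weighted replicate averages.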

Row | Variant | polymerase ribozyme fitness (log ratio)
1 | GGAUCUUCUCGAUCUAACAAAAAAGAGAGAUCUGCCACAACGCUUGAGAGCAUCUUCGGAUGCAGAAGCGGCAACCUUCGGUGGCGCGAUAGCGCCAACGUUCUCAACUAUGACACGCAAAACGCGUGCUCCGUUGAAUGGAGUUUAUCAUG | ≤ -4.2
2 | GGAUCUUCUCGAUCUAACAAAAAAGAAAAAUCUGCCACAAAGCUUGAGAGCAUCUUCGGAUGCAGAGGCGGCAGCCUUCGGUGGCGCGAUAGCGCCAACGUUCUCAACUAUGACACGCAAAACGCGUGCUCCGGUGAAAGGAGUUUAUCAUG | ≤ -4.2
3 | GGAUCUUCUCGAUCUAACAAAAAAGAAAAAUCUGCGACAAAGCUUGAGAGCAUCUUCGGAUGCAGAGGCGGCAGCCUUCGGUGGCGCGAUUGCGCCAAUGUUCUCAACUAUGACACGCAAAACGCGUGCUCCGUUGAAUGGAGUUUAUCAUG | ≤ -4.2
4 | GGAUCUUCUCGAUCUAACAAAAAAGAAAAAUCUGCCACAAAGCUUGAGACCAUCUUCGGAUGCAGAGGCGGCACCCCUCGGUGGCGCGAUAGCGCCAACGUUCACAACUAUGACACGCAAAACGCGUGCUCCGUUGAAUGGAGUUUAUCAUG | ≤ -4.2
5 | GGAUCUUCUCGAUCUAACAAAAAAGAAAAAUCUGCCACAAAGCUUGAGAGCAUCUUCGGAUGCAGAGGCGGCAGCCUUUGGUGGCGCGAUAGCGCCAACGUUCUCAACUAUGACACGCAAAACGCGUGCUCCGUUGAAUGGAGUUUAUCAUG | ≤ -4.2
6 | GGAUCUUCUCGAUCUAACAAAAAAGAGAAAUCUGCCACACAGCUUGAGAGCAUCUUCGGAUGCAGGGGCGGCAGCCUUUGGUGGCGCGAUCGCGCCAACGUUCUCAACUAUGACACGCAAAACGCGUGCUCCGUUGAAUGGAGUUUAUCAUG | -4.03
7 | GGAUCUUCUCGAUCUAACAAAAAAGAAAAAUCUGCCACAAAGCAAGAGAGCAUCUUCGGAUGCAGAGGCGGCAGCCUUCGGUGGCGCGAUAGGGCCAACGUUCUCAACUAUGACACGCAAAACGCGUGCUCCGUUGAAUGGAGUUUAUCAUG | -4.2
8 | GGAUCUUCUCGAUCUAACAAAAAAGAAAAAUCUGCCACAAAGCUUGAGAGCAUCUUCGGAUGCAGAGGCGGCAGCCUUCGGUGGUGCGAUAGCGCCAACGUUCUCAACUAUGACACGCAAAACGCGUGCUCCGUUGAAUGGAGUUUAUCAUG | -3.43
9 | GGAUCUUCUCGAUCUAACAAAAAAGAAAAAUCUGCCACAAAGCUUGAGAGCAUCUUCGGAUGCAGAGGCGGCAGCCUUCGGUGGCACGAUAGCGCCAACGUUCUCAACUAUGACACGCAAAACGCGUGCUCCGAUGAAUGGAGUUUGUCAUG | ≤ -4.2
10 | GGAUCUUCUCGAUCUAACAAAAAAGAGAAAUCUGCCACAAAGCUUGAGCGGAUCUUCGGAUGCAGAGGCGGCAGCCUUCGGUGUCGCGAUAGCGCCAGCGUUCUCAACUGUGACACGCAAAACGCGUGCUCCGUUGAAUGGAGUUUAUCAUG | ≤ -4.2
11 | GGAUCUUCUCGAUCUAACAAAAAAGAAAAAUCUGCCACAAAGCUUGAGAGCAUCUUCGGAUGCAGAGGCGGCAGCCUUCGGUGGCGCGAUAGCGCCAACGUUCUCAGCUAUGACACGCAAAACGCGUGCUCCGUUGAAUGGAGUUUAUCAUG | ≤ -4.2
12 | GGAUCUUCUCGAUCUAACAAAAAAGAAAAAUCUGCCACAAAGCUUGAGAGCAUCUGCGGUUGCAGAGGCGGCAGCCUUCGGUGGCUCGAUAGCGCCGACGUUCUCAACUAGGACACGCAAAACGCGUGCUCAGUGGAAUGGAGUUUAUCAUG | ≤ -4.2
13 | GGAUCUUCUCGAUCUAACAAAAAAGAGAAAUCUGCCAAAAAGCUUGAGAGCAUCUUCGGAUGCAGAGGCGGCAGCCUUCGGUGGAGGGAUAGCGCCAACGUUCUCAACUAUGACACGCAAAACGCAUGCUCCGUUGGAUGGAGUUUAUCAUG | ≤ -4.2
14 | GGAUCUUCUCGAUCUAACAAAAAAGAAAAAUCUGCCACAAAGCAUGAGAGCAUCAUCGGAUGCAGGGGCGGCAGCCUUCGGUGGCGUGAUAGCGGCAACGUUCUCAACUGUGAUACGCAAAACGCGUGCUCCGUUGAAUGGAGAUUAUCAUG | ≤ -4.2
15 | GGAUCUUCUCGAUCUAACAAAAAAGAGAAAUCUGCCACAAAGCUUGAGGGCCUCUUCGGAUGCAGAGGCGGCAGCCUUCGGGGGCGCGAUGGCGCCAACGUUCUCAACUAUGACACGCAAAACGCGUGCUCCGUUGAAUGGAGUUUAUCAUG | ≤ -4.2
16 | GGAUCUUCUCGAUCUAACAAAAAAGAAAAAUCUGCCACAAAGCAUGAGAGCAUCUUCGGAAGCAGAGGCGGCAGCCUUCGGUGGCGCGAUAGCGUCAACGUUCUCAACUAUGACACCCAAUACGCGUGGUCCGUUGAAUGGAGUUUAUCAUG | ≤ -4.2
17 | GGAUCUUCUCGAUCUAACAAAAAAGAAAAAUCUGCCACAAAGAUUGAGAGCAUCUUCGGAUGCAGUGGCGGCAGCCUUCGGUGGCGCGAUAGGGCCAACGUUCUCAACUAUGACACGCAAAACGCGUGCUCCGUUGAAUUAAGUUGAUCAUG | ≤ -4.2
18 | GGAUCUUCUCGAUCUAACAAAAAAGAAAAAUCUGCCACAAAGCUUGAGAGCAUCUUCGGAUGCAGAGGCGGCAGCCUUCGGUGGAGCGAUAGCGCCAACGUUCUCAACUAUGACACGCAAAACGCGUGCUCCGUUGAAUGGAGUUUAUUAUG | ≤ -4.2
19 | GGAUCUUCUCGAUCUAACAAAAAAGAAAAAUCUGCCACAAAGCUUGAGAGCAUCUUCGGAUGCAGAGGCGGCAGCCUUCGGAGGCGCGAUGGCGCCAACGUUCUCAACUAUGACACGCAAAACGCGUGCUGCGUUGAACGGAGUUUAUCAUG | ≤ -4.2

Row | Variant | polymerase ribozyme fitness (log ratio)
20 | GGAUCUUCUCGAUCUAACAAAAAAGAGAAAUCUGCCACAAAGCUUGAGAGCAUAUUCGGAUGCACAGGCGGCAGCCUUCGGUGGCGCGAUAGCGUAAAAGUUCUCAACUAUGACACGCAAAACGCGUGCUCCGUUGAAUGGAGUUUAUCAUG | ≤ -4.2
21 | GGAUCUUCUCGAUCUAACAAAAAAGAGAAAUCUGCCACAAUGCUUGAGAGCAUCUUCGGAUGCAGAGGCGGCAGCCUUCGGUGGCGUGAUAGCGCCAACGUUCUCAACUAUGACACGCAAAACGCGUGCUCCGUUGAAUGGAGUUUAUCCUG | -3.92
22 | GGAUCUUCUCGAUCUAACAAAAAAGAAAAAUCUACCACAAAGCUUGAGAACAUCUUCGGAUGCUGAGGCGGCAGCCUACGGUGGCGCGAUAGCUCCAACGUUCUCUACUAUGACACGCAAAACGCCUGCUCCGUUGAAUGGAGUUUAGCAUG | ≤ -4.2
23 | GGAUCUUCUCGAUCUAACAAAAAAGAGAAAUCUGCCACAAAGAUUGAGAGCAUCUUCGGAUGCAGAGGCGGUAGCCUUCGGUGGCGCGAUAGAGCCAACGUUCUCAACUAUGACACGCAAAACGGGUGCUCCUUUGAAUGGAAUUUAUCAUG | ≤ -4.2
24 | GGAUCUUCUCGAUCUAACAAAAAAGAGAAAUCUGCCAAAAAACUUGAGAGCAUCUUCGGAUACAGAGACGGCAGCCUUCGGUGGCGCGAUAGCGCCAACGUUCUCAACUAUGACACGCAAACCGCGUACUCCGUUGAAUGGAGUUGAUCAUG | -4.01
25 | GGAUCUUCUCGAUCUAACAAAAAAGAGUAAUCUGCCACAAAGCUUGAGAGCAUCUUCGGAUGCAGAGGCGGCAGCCUUCGCUGGCGCGAUAGCGCCAACGUUCUCAACUAUGACACGCAAAACGCGUGCUCCGUUGAAUGAAGUUUAUCAUG | ≤ -4.2
26 | GGAUCUUCUCGAUCUAACAAAAAAGAGAAAUAUGCCACAAAGCUUGAGAGCAUCUUCGGAUGCAGAGGCGGCAGCCUUCGGUGGCGCGAUAGUGCUAACGUUCUCAACUAUGACACGCAAAACGCGUGCUCCGUUGAAUGGAGUUUAUCAUG | -4.06
27 | GGAUCUUCUCGAUCUAACAAAAAAGAAAAAUCUGCCACAAAGCUUGAGAGCAUCUUCGGAUGCAGAGGCGGCAGCCAUCGGUGGCGCGAUAGCACCAACGUUCUCAACUAUGAUACGCAAAACGCGUGCUCCGUUGAAUGGAGUUUAUCAUG | ≤ -4.2
28 | GGAUCUUCUCGAUCUAACAAAAAAGAAAAAUCGGCCACAAAGCUUGAGAGCAUCAUCGGAUGCAGAGGCGGCAGCCUUCGGUGGCGCGAUAGCGCCAACGUUCUCAACUAUGACAGGCAAAACGCGUGCUCCGUUGAAUGGAGUUUAUCAUG | -4.1
29 | GGAUCUUCUCGAUCUAACAAAAAAGAGAAAUCUGCCACGAAGCUUGAGAGCAUCUUCGGAUGCAGAGGCGGCAGCCUUCGGUGGCGCGCUAACGCCAACGUUCUCAACUAUGACACGCAAAACGCGAGCUCCGUUGAAUGGAGUUUAUCAUG | -4.11
30 | GGAUCUUCUCGAUCUAACAAAAAAGAGUAAUCUGCCACAAAGCUUGAGAGCAUCGUCGGAAGCAGAGGCGGCAGCAUUCGGUGGCGCGAUAGCGCUAACGUUCUCAACUAUGACAGGCAAAACGCGUGCUCCCUUGAAUGGAGUUUAUCAUG | ≤ -4.2
31 | GGAUCUUCUCGAUCUAACAAAAAAGAAAAAUCUGCUACAAAGCUUGAGAGCAUCUUCGGAUGCAGAGGCGGCACGCUUCGGUGUCGCGAUAGGGCCCACGUUCUCAACUAUGACACACAAAACGCGUGCUCCGUUGAAUGGAGUUUAUCAUG | ≤ -4.2
32 | GGAUCUUCUCGAUCUAACAAAAAAGAGAAAUCUGCCACAAAGCUUGAGAGCGACUUCGGAUGCAGAGGCGGCAGCCUUCGGUGGCGCGAUAGCGCCAACAUUCUCAACUAUGACACGCAAAACGCGUGCUCCGUUGAAUGGAGUUUAUCAUG | ≤ -4.2
33 | GGAUCUUCUCGAUCUAACAAAAAAGAAAAAUCUGCCACAAAGGUUGAGAGCAUCUUCGGAUGCAGAGGCGGCAGCCUUCGGUGGCGCGAUACCGCCAACGCUCUCAACUAUGACACGCAAAACGCGGGCUCCGUUGAAUGGAGUUAAUCAUG | ≤ -4.2
34 | GGAUCUUCUCGAUCUAACAAAAAAGAAAAAUCUGCCACAAAGCUUGAGAGCAUCUUCGGAUGCAGAGGCGGCAGCCUUCGGUGGCGAGAUAGAGCCAACGUUCUCAACUAUGACACGCAAAACGCGUGCUCCGUUGAAUGGACGUUAUCAUG | ≤ -4.2
35 | GGAUCUUCUCGAUCUAACAAAAAAGAAAAAUCUGCCACAAAGAUUGAGAGCAUCUUCGGUUGCAGAGGCGGCAGCCUUCGGUGGCGAGAUAGCGCCAACGUUCUCAACUAUGACACGCAAAACGCGUGCUCCGUUGAAUGGAUUUUAUCAUG | ≤ -4.2
36 | GGAUCUUCUCGAUCUAACAAAAAAGAAAAAUCUGCCACAAAGCUUGAGAGCAUCUUCGGAUACAGAGGCGGCAGCCUUCGGUGGCGGGAUCGCGCCAACGUUCUCAACUAUGACACGCAAAACGCGUGCUCCGUUGAAUGGAGUUUAUCAUG | ≤ -4.2
37 | GGAUCUUCUCGAUCUAACAAAAAAGAAAAAUUUGCCACAAAGCUUGAGAGCAUCUUCGGAUGCAGAGGCGGCAGCCUUCGGUGGCGCGAUAGCGGCAACGUUCUCAACUAUGACCCGCAAAUCGCGUGAUACGUUGAAUGGAGUUUAUCAUG | ≤ -4.2
38 | GGAUCUUCUCGAUCUAACAAAAAAGAGAAAUCUGCCACAAAGCUUGAGGGCAUCUUCGGAUGCAGCGGCGGCAGCCUUCGGUGGCGCGAUAGCGCCAACGUUCUCAACUAUGACACGCAAAACGCGUGCUCCGUUGAAUGGAGUUUAUCAUG | ≤ -4.2
